From IntAct's records for PubMed 22078559

B1: Double-strand break repair protein MRE11 (Homo sapiens), P49959 (parent)
chain: MSTADALDDENTFKILVATDIHLGFMEKDAVRGNDTFVTLDEILRLAQENEVDFILLGGDLFHENKPSRKTLHTCLELLRKYCMGDRPVQFEILSDQSVNFGFSKFPWVNYQDGNLNISIPVFSIHGNHDDPTGADALCALDILSCAGFVNHFGRSMSVEKIDISPVLLQKGSTKIALYGLGSIPDERLYRMFVNKKVTMLRPKEDENSWFNLFVIHQNRSKHGSTNFIPEQFLDDFIDLVIWGHEHECKIAPTKNEQQLFYISQPGSSVVTSLSPGEAVKKHVGLLRIKGRKMNMHKIPLHTVRQFFMEDIVLANHPDIFNPDNPKVTQAIQSFCLEKIEEMLENAERERLGNSHQPEKPLVRLRVDYSGGFEPFSVLRFSQKFVDRVANPKDIIHFFRHREQKEKTGEEINFGKLITKPSEGTTLRVEDLVKQYFQTAEKNVQLSLLTERGMGEAVQEFVDKEEKDAIEELVKYQLEKTQRFLKERHIDALEDKIDEEVRRFRETRQKNTNEEDDEVREAMTRARALRSQSEESASAFSADDLMSIDLAEQMANDSDDSISAATNKGRGRGRGRRGGRGQNSASRGGSQRGRADTGLETSTRSRNSKTAVSASRNMSIIDAFKSTRQQPSRNVTTKNYSEVIEVDESDVEEDIFPTTSKTDQRWSSTSSSKIMSQSQVSKGVDFESSEDDDDDPFMNTSSLRRNRR

Variants of: B1
Conditions: with nbn_human NBN

Row | Variant | effect of a mutation on the interaction
1 | R80A | disrupting interaction
2 | D86L | decreasing interaction
3 | S104C | decreasing interaction
4 | N117L | disrupting interaction
5 | P121G | disrupting interaction
6 | C146A | decreasing interaction
7 | R202G | disrupting interaction
